From the RNAGym collection of RNA variant scans (doi:10.7554/elife.80360)

B1: Hairpin Ribozyme (parent)
chain: GUCCUCUUUCACGUGCGCGUGAAAGAGAGAAGUGAACCAGAGAAACACACGUUGUGGUAUAUUACCUGGUA

Variants of: B1
Assay: self-cleavage, relative activity (ratio to wild type); higher = more cleavage; co-transcriptional

Variant | self-cleavage
U8A A24C | 0.626
U8A A24U | 0.571
U8A A44U | 0.0969
U8A U60A | 0.755
U8A U60G | 0.439
U8G A22G | 0.676
U8A G34A | 0.98
U9C C10G | 0.582
U8G A44G | 0.148
U8G A44C | 0.139
U8G A44U | 0.184
U9A A31C | 0.158
U9A A31U | 0.0478
U8C U53C | 0.766
U9C A11G | 0.692
U8A A43C | 0.153
U8G A47U | 0.168
U9A A59U | 0.14
U8A C46G | 0.0541
U7G G40U | 0.214
U9C A49G | 0.21
U9C A49C | 0.204
U9C A41U | 0.966
U8A G69A | 0.375

Variant | self-cleavage
U8A G69C | 0.191
U8A G69U | 0.213
U7G U53A | 0.967
U7G U53G | 0.641
U8C U67G | 0.226
U8C U67C | 0.159
U9A G34A | 0.905
U9A G34U | 1.19
U8C C12G | 0.229
U8G C38A | 0.165
U8G C38U | 0.548
U9C A47U | 0.178
U8G G40A | 0.264
U8G G40C | 0.111
U8C A41U | 1.12
U9A G17C | 0.261
U9A G17U | 0.65
U9A G17A | 0.695
U8G A36C | 0.5
U7G A49G | 0.421
U7G A59G | 0.0757
U7G A59U | 0.116
U9A U67C | 0.174
U8G A24G | 0.632

Variant | self-cleavage
U7G A44C | 0.195
U8G C46U | 0.195
U8G C46G | 0.128
U8G C46A | 0.134
U9A U53A | 0.768
U9C A30G | 0.336
U8A A26G | 0.606
U9A G21A | 0.573
U9A G21U | 0.732
U9C A35C | 0.602
U9C A35G | 0.688
U9A A49C | 0.254
U8C U52A | 0.676
U7G G15C | 0.836
U8G G25A | 0.21
U7G U20G | 0.453
U8G C65A | 0.97
U8G C65U | 0.363
U8A G25U | 0.114
U8A G25A | 0.432
U8G A35G | 0.667
U8C G29U | 0.081
U8C G29A | 0.112
U8A A61G | 0.0847

Variant | self-cleavage
U9A C66A | 0.166
U9C G17C | 0.647
U9C G17A | 0.805
U8G G17C | 0.23
U7G G21U | 0.453
U7G G21A | 0.499
U9A A23C | 0.501
U8G G54U | 0.37
U8G C66U | 0.412
U8G A64C | 0.0997
U8G A64U | 0.146
U8C G17U | 0.554
U8C G17C | 0.404
U9A A71U | 0.525
U8G A59U | 0.188
U8G A59G | 0.121
U8A C50U | 0.311
U8A C50A | 0.158
U8C G68C | 0.238
U7G C46G | 0.134
U8A G51C | 0.602
U8A A35G | 0.483
U8A A35U | 0.459
U7G C38U | 0.377

Variant | self-cleavage
U8C G57A | 0.119
U9A G13A | 0.471
U9A A41U | 0.786
U9A A41C | 0.783
U8C C50G | 0.119
U8C C50A | 0.144
U7G C37A | 0.335
U8A C16U | 0.788
U9A C10A | 0.743
U9A C10G | 0.519
U9A C10U | 0.455
U8A G13U | 0.551
U8A G13A | 0.637
U8A G13C | 0.687
U9C A23G | 0.814
U9C A23C | 0.862
U7G G51C | 0.908
U8G A43G | 0.132
U8C A11U | 0.252
U9A A36G | 0.797
U9A A36C | 0.456
U8C A47U | 0.224
U9A A39C | 0.423
U8A G32A | 0.141

Variant | self-cleavage
U8A G32U | 0.166
U8C A43C | 0.126
U8A U20C | 0.928
U8A U20A | 0.479
U9C A43C | 0.102
U9C A43G | 0.0922
U8C A23C | 0.68
U8C A23U | 0.841
U7G U60A | 0.795
U8C A64G | 0.443
U8C A64U | 0.104
U9A U55A | 0.225
U9A U55C | 0.179
U8A U63A | 0.111
U8A G68U | 0.172
U8C A59G | 0.203
U8C A59C | 0.183
U9A C38A | 0.146
U7G G13U | 0.632
U8C C37U | 0.347
U8C A49U | 0.244
U8C A49G | 0.347
U8C G56U | 0.167
U8C U55A | 0.16

Variant | self-cleavage
U9C C38G | 0.145
U7G G27A | 0.369
U8C A30U | 0.0797
U8C A30G | 0.144
U9C A26G | 0.747
U9C A26C | 0.426
U8A A28C | 0.385
U8A A28U | 0.613
U9A C46A | 0.0884
U9A U20G | 0.583
U9A U20A | 0.605
U9A G56U | 0.178
U9A G42C | 0.187
U8G A31G | 0.47
U8G A31U | 0.112
U8A U9C | 0.377
U7G U58C | 0.813
U8G G15C | 0.639
U8G G15A | 0.897
U9A C16G | 0.511
U8C C66G | 0.0616
U8A C18G | 0.524
U8A C18U | 0.779
